What was measured:
[1] = biological target: E-cadherin, endogenous in SK-Mel-28 cells; test: Flag IP with mass spectrometry (LFQ); details: read off a plot
GSDMA = test: Flag IP with mass spectrometry (LFQ); details: SK-Mel-28 cells; read off a plot

A log10 ratio [1] of -2.5 and a log10 ratio (GSDMA) of 2.2 were found for “Flag-CTNND1 WT, stably expressed in SK-Mel-28 cells (from UniProt O60716) C618S” in this work.

— PMC12646662
